Measured values taken from patent publication US20230235058A1 (OXFORD UNIVERSITY INNOVATION, published 2023).

B1: Engineered humanised 6.2 (Variant C) (antibody, V domains shown)
VH: EVQLVESGGGLVKPGGSLRLSCAASGFTLSSYGMSWVRQAPGKGLEWVASIRSDGQTYYPDSVKGRFTISRDNAKNTLYLQMSSLRAEDTAVYYCTRGGYYGSSPYYWGQGTTVTVSS
VL: DIVMTQSPLSLPVTPGEPASISCKSSQSLLYSSNQKNYLAWYQQKPGQSPKLLIYWASTRESGVPDRFSGSGSGTDFTLKISRVEAEDVGVYYCQQYYNYLTFGGGTKVEIKR
B2: Engineered humanised 3E8 (Variant B) (antibody, V domains shown)
VH: QVQLVQSGAELKKPGASVKVSCKASGYTFTSYAIRWVRQATGQGLEWMGEIYPRSGNTYYAQKFQGRATLTADKSISTAYMELSSLRSEDTAVYFCARSGGASYTMDYWGQGTTVTVSS
VL: ENVLTQSPATLSLSLGERATLSCSASSSVSSSYLHWYQQKPDQSPRPLIHRTSNLASGIPSRFSGSGSGTDYTLTISSLEAEDFAVYYCQQWSGYPFTFGSGTKLEIKR
B3: humanised 2.8.6 hIgG1 (antibody)
heavy: not shown
VL: EIVLTQSPATLSLSPGERATLSCRASSSVSYMHWYQQKPGQAPRPLIYATSNRATGIPARFSGSGSGTDYTLTISSLEPEDFAVYYCHQWSSNPYTFGQGTKLEIKRTVAAPSVFIFPPSDEQLKSGTASVVCLLNNFYPREAKVQWKVDNALQSGNSQESVTEQDSKDSTYSLSSTLTLSKADYEKHKVYACEVTHQGLSSPVTKSFNRGEC
notes: Fc variant with the variable domains of humanised 2.8.6; not shown: human IgG1 heavy chain constant region; copies: 2 + 2
B4: humanised 2.8.6 hIgG1 D265A G236D S267E A330R (antibody)
heavy: QVTLKESGPALVKPTQTLTLTCTVSGFSLTTYGVHWIRQPPGKALEWLGVMWPGGRTSYNPSLKSRLTITKDNSKSQVVLTMTNMDPVDTATYYCVRGDYEYDYYAMDYWGQGTLVTVSSASTKGPSVFPLAPSSKSTSGGTAALGCLVKDYFPEPVTVSWNSGALTSGVHTFPAVLQSSGLYSLSSVVTVPSSSLGTQTYICNVNHKPSNTKVDKKVEPKSCDKTHTCPPCPAPELLDGPSVFLFPPKPKDTLMISRTPEVTCVVVAVEHEDPEVKFNWYVDGVEVHNAKTKPREEQYNSTYRVVSVLTVLHQDWLNGKEYKCKVSNKALPRPIEKTISKAKGQPREPQVYTLPPSREEMTKNQVSLTCLVKGFYPSDIAVEWESNGQPENNYKTTPPVLDSDGSFFLYSKLTVDKSRWQQGNVFSCSVMHEALHNHYTQKSLSLSPGK
light: EIVLTQSPATLSLSPGERATLSCRASSSVSYMHWYQQKPGQAPRPLIYATSNRATGIPARFSGSGSGTDYTLTISSLEPEDFAVYYCHQWSSNPYTFGQGTKLEIKRTVAAPSVFIFPPSDEQLKSGTASVVCLLNNFYPREAKVQWKVDNALQSGNSQESVTEQDSKDSTYSLSSTLTLSKADYEKHKVYACEVTHQGLSSPVTKSFNRGEC
notes: Fc variant with the variable domains of humanised 2.8.6; copies: 2 + 2
B5: Humanised 2.8.6 (hIgG1 P238D) (antibody)
heavy: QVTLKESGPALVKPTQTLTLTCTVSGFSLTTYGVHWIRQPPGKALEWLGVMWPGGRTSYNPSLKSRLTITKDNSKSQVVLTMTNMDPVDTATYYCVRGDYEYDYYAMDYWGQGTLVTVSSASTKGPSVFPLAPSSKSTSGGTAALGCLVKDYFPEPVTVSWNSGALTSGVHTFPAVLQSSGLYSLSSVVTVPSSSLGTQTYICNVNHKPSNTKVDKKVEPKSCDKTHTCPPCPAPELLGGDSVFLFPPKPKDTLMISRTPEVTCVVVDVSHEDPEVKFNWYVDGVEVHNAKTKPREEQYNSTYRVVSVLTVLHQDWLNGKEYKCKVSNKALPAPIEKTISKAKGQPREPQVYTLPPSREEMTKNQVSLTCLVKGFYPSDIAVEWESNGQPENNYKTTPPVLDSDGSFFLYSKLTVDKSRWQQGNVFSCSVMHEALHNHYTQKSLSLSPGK
light: EIVLTQSPATLSLSPGERATLSCRASSSVSYMHWYQQKPGQAPRPLIYATSNRATGIPARFSGSGSGTDYTLTISSLEPEDFAVYYCHQWSSNPYTFGQGTKLEIKRTVAAPSVFIFPPSDEQLKSGTASVVCLLNNFYPREAKVQWKVDNALQSGNSQESVTEQDSKDSTYSLSSTLTLSKADYEKHKVYACEVTHQGLSSPVTKSFNRGEC
notes: copies: 2 + 2

Columns and labels:
[1] = biological target: T1, monomeric soluble human BTLA extracellular domain (BTLA K31-R151) (human, UniProt Q7Z6A9 31-151); experiment: SPR Biacore 8K 37C, single cycle kinetics;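 further: antibody captured on sensor chip, soluble BTLA extracellular domain flowed over at several concentrations in HBS-EP pH 7.4, rates fitted after subtracting isotype-control reference channel and blank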
T1 construct: also called hBTLA; monomeric BTLA
Description: (§1) The binding affinity and kinetics of humanised BTLA agonist antibodies to human or cynomolgus BTLA were determined by surface plasmon resonance using the Biacore 8K (GE Healthcare). […] Anti-BTLA antibody was then captured onto the biosensor surface and a negative control antibody (human IgG1k isotype control; Sino Biological cat #HG1K) captured in the reference channel. Various concentrations of monomeric soluble human BTLA extracellular domain (BTLA^K31-R151, produced recombinantly in house) or soluble cynomolgus macaque BTLA extracellular domain (BTLA^K31-R151, produced recombinantly in house) were then injected over the immobilized antibodies in the buffer HBS-EP (GE Healthcare, cat #BR100669), pH 7.4 (HBS-P) at 37° C., in a single cycle kinetics analysis.

[2] = biological target: T2, soluble cynomolgus macaque BTLA extracellular domain (BTLA K31-R151) (cynomolgus macaque); experiment: SPR Biacore 8K 37C, single cycle kinetics;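 further: antibody captured on sensor chip, soluble BTLA extracellular domain flowed over at several concentrations in HBS-EP pH 7.4, rates fitted after subtracting isotype-control reference channel and blank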
T2 construct: also called cynomolgus BTLA; cyno BTLA
T2 chain: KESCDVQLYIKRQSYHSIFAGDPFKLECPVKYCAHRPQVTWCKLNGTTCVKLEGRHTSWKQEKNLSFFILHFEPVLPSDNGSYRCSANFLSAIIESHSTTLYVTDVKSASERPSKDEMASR
Description: as §1

[3] = biological target: T3, full length human BTLA expressed on cells (human, UniProt Q7Z6A9 31-289); experiment: flow cytometry, BTLA Jurkat cells
T3 construct: also called human BTLA expressing cells; human BTLA transfected Jurkat T cell line
Description: (§2) A lentiviral transfection system was used to express full length human or cynomolgus BTLA in a Jurkat T cell line. 1×10⁵ cells per well were plated in 96 well U-bottom plates. […] Secondary antibody was incubated for 30 minutes on ice, then cells were washed and resuspended in FACS buffer for analysis on a flow cytometer. The geometric mean fluorescent intensity of secondary antibody was plotted for each concentration and the EC50 for receptor binding calculated by non-linear curve fitting using GraphPad Prism software.
(§3) The ability of the BTLA agonist antibodies of the present invention to bind to human or cynomolgus BTLA expressed on the cell surface was assessed by flow cytometry. A lentiviral transfection system was used to express full length human or cynomolgus BTLA in a Jurkat T cell line. 1×10⁵ cells per well were plated in 96 well U-bottom plates.

[4] = biological target: T4, full length cynomolgus BTLA expressed on Jurkat cells (cynomolgus monkey, UniProt Q7Z6A9 31-289 (human entry)); experiment: flow cytometry, BTLA Jurkat cells
T4 construct: also called cynomolgus BTLA expressing cells
T4 chain: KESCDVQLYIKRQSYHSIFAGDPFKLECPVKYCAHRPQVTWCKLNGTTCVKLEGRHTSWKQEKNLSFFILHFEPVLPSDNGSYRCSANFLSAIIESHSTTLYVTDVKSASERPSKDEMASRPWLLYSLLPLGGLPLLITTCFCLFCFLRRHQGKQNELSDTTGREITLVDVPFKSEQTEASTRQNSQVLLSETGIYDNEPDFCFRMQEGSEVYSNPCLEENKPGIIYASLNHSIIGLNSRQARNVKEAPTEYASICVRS
Description: as §2, §3

[5] = biological target: T3, full length human BTLA expressed on …; experiment: cell-based or functional assay
human FcγR1A [6] = biological target: T5, human FcγR1A (human, UniProt P12314 16-288, biotinylated); experiment: SPR 37C, kinetic; wild-type hIgG1 Fc
T5 construct: bought; also called CD64A
Description: (§4) For the high affinity FcR interactions (FcγR1A, and also FcRn assessed at pH6.0) the binding was assessed in a kinetic analysis with antibody as analyte. […] Reference flow cell 1 was left empty in all channels. Purified antibody was then injected at a single concentration and on/off rates calculated by curve fitting on BiaEvaluation software.

human FcγR3A 158F [7] = biological target: T6, human FcγR3A 158F (human, UniProt P08637 17-208); experiment: SPR 37C, steady state; wild-type hIgG1 Fc;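 on result: fc variants captured on chip-bound human BTLA ectodomain, recombinant FcγR ectodomains injected as analyte at varied concentrations, double-referenced equilibrium binding fitted to Langmuir model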
T6 construct: extracellular domain
Description: (§5) For the low affinity FcγRs (FcγR2A, FcγR2B, FcγR3A and FcγR3B) the interactions were assessed by surface plasmon resonance with the recombinantly expressed FcRs (extracellular domains only) as analyte. Briefly, recombinant human BTLA extracellular domain (BTLA^K31-R151) was covalently immobilised to both flow cells of all channels of a CMS Series S sensor chip using the GE Healthcare Amine coupling kit. The 2.8.6 Fc variant to be assessed was then captured (approx. 500-1000 response units) in flow cell 2 of each channel. Steady state affinity analysis was then performed by injecting varying concentrations of FcR in multiple cycles and measuring equilibrium binding. Double referencing was used (subtracting the signal in the reference Fc1 and also subtracting the signal from a blank zero concentration injection). KDs were calculated from the Langmuir curves (plotting equilibrium binding against analyte concentration to determine the concentration required for half maximal binding).

human FcγR3B [8] = biological target: T7, human FcγR3B (human, UniProt O75015 17-200, limits assumed); experiment: SPR 37C, steady state; wild-type hIgG1 Fc;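 on result: fc variants captured on chip-bound human BTLA ectodomain, recombinant FcγR ectodomains injected as analyte at varied concentrations, double-referenced equilibrium binding fitted to Langmuir model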
T7 construct: extracellular domain; also called CD16B
Description: as §5

human FcγR2B [9] = biological target: T8, human FcγR2B (human, UniProt P31994 43-217); experiment: SPR 37C, steady state; wild-type hIgG1 Fc;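 on result: fc variants captured on chip-bound human BTLA ectodomain, recombinant FcγR ectodomains injected as analyte at varied concentrations, double-referenced equilibrium binding fitted to Langmuir model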
T8 construct: extracellular domain; also called hFcγR2B; CD32B
T8 sequence (looked up): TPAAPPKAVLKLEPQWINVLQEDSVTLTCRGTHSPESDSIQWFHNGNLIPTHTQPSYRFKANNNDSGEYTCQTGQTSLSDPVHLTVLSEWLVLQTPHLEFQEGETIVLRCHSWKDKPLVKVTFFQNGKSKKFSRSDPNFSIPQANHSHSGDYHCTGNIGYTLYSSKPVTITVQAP
Description: as §5

human FcγR2A 131R [10] = biological target: T9, human FcγR2A 131R (human, UniProt P12318 34-217); experiment: SPR 37C, steady state; wild-type hIgG1 Fc;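 on result: fc variants captured on chip-bound human BTLA ectodomain, recombinant FcγR ectodomains injected as analyte at varied concentrations, double-referenced equilibrium binding fitted to Langmuir model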
T9 construct: extracellular domain
T9 sequence (looked up): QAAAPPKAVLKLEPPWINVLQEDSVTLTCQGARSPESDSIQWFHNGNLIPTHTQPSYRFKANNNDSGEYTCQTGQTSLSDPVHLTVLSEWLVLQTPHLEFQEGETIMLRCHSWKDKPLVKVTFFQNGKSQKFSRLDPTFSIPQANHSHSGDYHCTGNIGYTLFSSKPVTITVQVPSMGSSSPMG
Description: as §5

human FcγR2A 131H [11] = biological target: T10, human FcγR2A 131H (human, UniProt P12318 34-217); experiment: SPR 37C, steady state; wild-type hIgG1 Fc
T10 construct: extracellular domain
T10 sequence (looked up): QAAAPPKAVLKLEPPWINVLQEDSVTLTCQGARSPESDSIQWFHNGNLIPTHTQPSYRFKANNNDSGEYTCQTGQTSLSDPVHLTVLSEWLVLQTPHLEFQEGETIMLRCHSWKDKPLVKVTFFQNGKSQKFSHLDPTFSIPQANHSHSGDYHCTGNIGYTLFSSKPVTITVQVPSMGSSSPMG
Description: as §5

human FcγR3A 158V [12] = biological target: T11, human FcγR3A 158V (human, UniProt P08637 17-208); experiment: SPR 37C, steady state; wild-type hIgG1 Fc
T11 construct: extracellular domain
Description: as §5

human FcRn = biological target: T12, human FcRn (human, UniProt P55899 24-297; P61769 21-119, limits assumed, biotinylated); experiment: SPR, pH6.0
T12 construct: bought; also called FcRn pH6
Description: For the high affinity FcR interactions (FcγR1A, and also FcRn assessed at pH6.0) the binding was assessed in a kinetic analysis with antibody as analyte. […] Reference flow cell 1 was left empty in all channels. Purified antibody was then injected at a single concentration and on/off rates calculated by curve fitting on BiaEvaluation software. […] IgG Fc has two binding sites for FcRn so this assessment performed with FcRn immobilised at high density provides an avidity estimate for the interaction rather than a true KD.

human FcγR3A 158F [13] = biological target: T6, human FcγR3A 158F; experiment: SPR 37C, steady state
human FcγR3B [14] = biological target: T7, human FcγR3B; experiment: SPR 37C, steady state
human FcγR2B [15] = biological target: T8, human FcγR2B; experiment: SPR 37C, steady state
human FcγR2A 131R [16] = biological target: T9, human FcγR2A 131R; experiment: SPR 37C, steady state
human FcγR2A 131H [17] = biological target: T10, human FcγR2A 131H; experiment: SPR 37C, steady state
human FcγR3A 158V [18] = biological target: T11, human FcγR3A 158V; experiment: SPR 37C, steady state
human FcγR1A [19] = biological target: T5, human FcγR1A; experiment: SPR 37C, kinetic
Description: as §4

[20] = biological target: T1, monomeric soluble human BTLA …; experiment: SPR, monomeric BTLA

T5 sequence (P12314 16-288): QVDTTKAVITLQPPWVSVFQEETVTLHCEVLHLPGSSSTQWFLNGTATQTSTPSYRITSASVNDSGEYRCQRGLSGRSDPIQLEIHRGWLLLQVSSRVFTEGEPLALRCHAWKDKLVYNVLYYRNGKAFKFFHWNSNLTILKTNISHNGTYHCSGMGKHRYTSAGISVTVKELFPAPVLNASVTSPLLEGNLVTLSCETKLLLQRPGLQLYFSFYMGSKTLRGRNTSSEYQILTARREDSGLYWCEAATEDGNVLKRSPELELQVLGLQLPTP
T6 sequence (P08637 17-208): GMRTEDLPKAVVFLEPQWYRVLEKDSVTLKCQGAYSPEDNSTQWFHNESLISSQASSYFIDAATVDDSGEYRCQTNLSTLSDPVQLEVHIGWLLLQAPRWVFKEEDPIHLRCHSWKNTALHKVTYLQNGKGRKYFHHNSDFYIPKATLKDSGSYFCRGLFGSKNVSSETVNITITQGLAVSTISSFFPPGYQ
T11 sequence (P08637 17-208 F176V): as the sequence (P08637 17-208) above, with F160V counted along it
T7 sequence (O75015 17-200 limits assumed): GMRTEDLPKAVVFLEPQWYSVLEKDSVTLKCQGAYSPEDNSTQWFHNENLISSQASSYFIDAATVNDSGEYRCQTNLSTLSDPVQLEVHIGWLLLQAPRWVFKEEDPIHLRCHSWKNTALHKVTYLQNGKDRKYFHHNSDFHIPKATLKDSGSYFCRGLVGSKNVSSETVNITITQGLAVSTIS
T12 sequence (P55899 24-297 limits assumed, chain 1 of 2): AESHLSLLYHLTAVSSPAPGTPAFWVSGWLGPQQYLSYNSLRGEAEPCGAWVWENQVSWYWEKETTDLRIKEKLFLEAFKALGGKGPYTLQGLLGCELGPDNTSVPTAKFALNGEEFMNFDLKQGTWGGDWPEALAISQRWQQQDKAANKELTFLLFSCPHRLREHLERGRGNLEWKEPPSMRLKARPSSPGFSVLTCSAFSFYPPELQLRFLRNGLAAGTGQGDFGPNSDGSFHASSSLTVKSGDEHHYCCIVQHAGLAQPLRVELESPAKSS
T12 sequence (P61769 21-119 limits assumed, chain 2 of 2): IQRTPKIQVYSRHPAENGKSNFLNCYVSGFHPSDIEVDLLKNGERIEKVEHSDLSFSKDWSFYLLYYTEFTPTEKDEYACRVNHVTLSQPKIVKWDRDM

Binder | Kd [1] | koff [1] | kon [1] | Kd [2] | koff [2] | kon [2] | EC50 [3] | EC50 [4] | inhibition of NFkB signal, IC50 [5] | maximal inhibition of NFkB signal [5] | avidity (FcRn pH6) (human FcRn) | Kd (human FcγR2B [15]) | Kd (human FcγR2A 131R [16]) | further results
B1 | 0.00125 µM | 0.00133 s⁻¹ | 1.06e+06 M⁻¹ s⁻¹ | 0.0154 µM | 0.00352 s⁻¹ | 229000 M⁻¹ s⁻¹ | 0.062 nM | 0.000148 µM | 0.028 nM | 47% | – | – | – | –
B2 | 0.141 µM | 0.122 s⁻¹ | 865000 M⁻¹ s⁻¹ | 1.52 µM | 0.431 s⁻¹ | 287000 M⁻¹ s⁻¹ | 0.177 nM | 0.0156 µM | 0.065 nM | 54% | – | – | – | –
B3 | – | – | – | – | – | – | – | – | – | – | 4.58 nM | – | – | Kd (human FcγR1A [6]): 0.00375 µM; Kd (human FcγR3A 158F [7]): 9.37 µM; Kd (human FcγR3B [8]): 22.9 µM; Kd (human FcγR2B [9]): 8.65 µM; Kd (human FcγR2A 131R [10]): 1.57 µM; Kd (human FcγR2A 131H [11]): 1.98 µM; Kd (human FcγR3A 158V [12]): 2.78 µM
B4 | – | – | – | – | – | – | – | – | – | – | – | 104 µM | 54.4 µM | binding result (human FcγR3A 158F [13]): no binding; binding result (human FcγR3B [14]): no binding; binding result (human FcγR2A 131H [17]): no binding; binding result (human FcγR3A 158V [18]): no binding; binding result (human FcγR1A [19]): no binding
B5 | 0.00233 µM | 0.00157 s⁻¹ | 673000 M⁻¹ s⁻¹ | 0.147 µM | 0.025 s⁻¹ | 170000 M⁻¹ s⁻¹ | 0.066 nM | 0.000854 µM | 0.059 nM | 42% | 1.43 nM | 4.78 µM | 28.9 µM | Kd (human FcγR3A 158F [13]): 2480 µM; Kd (human FcγR3B [14]): 1580 µM; Kd (human FcγR2A 131H [17]): 76.5 µM; Kd (human FcγR3A 158V [18]): 7010 µM; Kd (human FcγR1A [19]): 0.465 µM; Kd [20]: 0.00073 µM
